# B1: 1E8.33 monoclonal antibody (antibody, V domains shown)
# VH: EVQLQESGPELVKTGSSVKISCKASGYSFTGYYMHWVKQSQGKSLEWIGYINCYNGATSYNRNFKGKATFTVDTSSSTAYMQFNSLTSGDSAVYYCAIWDYEFHVMDYWGQRTSLTVSS
# VL: ENVLTQSPAIMSASLGEKVTMSCRASSSVNYMYWYQQKSDASPKLWIYYTSNLAPGVPARFSGSGSGNSYSLTISSMEGEDADTYYCQQFTSSPWTFGGGTKLEIK
# notes: they are variable domains only; also called 1E8.33 mAb; 1E8.33 clone
# B2: peptide YNYGTMESYQTEAPR (peptide)
# peptide: YNYGTMESYQTEAPR
# notes: 15-residue peptide of the proCOL11A1 VAR region; also called the mentioned peptide
# What was measured:
# [1] = target: T1, proCOL5A1 expressed in SAOS-2 osteosarcoma cells (UniProt P20908 38-1838, limits assumed); experiment: immunocytochemistry on SAOS-2 cells
# T1 construct: Endogenous protein in cells, stained by immunocytochemistry
# T1 sequence (P20908 38-1838 limits assumed): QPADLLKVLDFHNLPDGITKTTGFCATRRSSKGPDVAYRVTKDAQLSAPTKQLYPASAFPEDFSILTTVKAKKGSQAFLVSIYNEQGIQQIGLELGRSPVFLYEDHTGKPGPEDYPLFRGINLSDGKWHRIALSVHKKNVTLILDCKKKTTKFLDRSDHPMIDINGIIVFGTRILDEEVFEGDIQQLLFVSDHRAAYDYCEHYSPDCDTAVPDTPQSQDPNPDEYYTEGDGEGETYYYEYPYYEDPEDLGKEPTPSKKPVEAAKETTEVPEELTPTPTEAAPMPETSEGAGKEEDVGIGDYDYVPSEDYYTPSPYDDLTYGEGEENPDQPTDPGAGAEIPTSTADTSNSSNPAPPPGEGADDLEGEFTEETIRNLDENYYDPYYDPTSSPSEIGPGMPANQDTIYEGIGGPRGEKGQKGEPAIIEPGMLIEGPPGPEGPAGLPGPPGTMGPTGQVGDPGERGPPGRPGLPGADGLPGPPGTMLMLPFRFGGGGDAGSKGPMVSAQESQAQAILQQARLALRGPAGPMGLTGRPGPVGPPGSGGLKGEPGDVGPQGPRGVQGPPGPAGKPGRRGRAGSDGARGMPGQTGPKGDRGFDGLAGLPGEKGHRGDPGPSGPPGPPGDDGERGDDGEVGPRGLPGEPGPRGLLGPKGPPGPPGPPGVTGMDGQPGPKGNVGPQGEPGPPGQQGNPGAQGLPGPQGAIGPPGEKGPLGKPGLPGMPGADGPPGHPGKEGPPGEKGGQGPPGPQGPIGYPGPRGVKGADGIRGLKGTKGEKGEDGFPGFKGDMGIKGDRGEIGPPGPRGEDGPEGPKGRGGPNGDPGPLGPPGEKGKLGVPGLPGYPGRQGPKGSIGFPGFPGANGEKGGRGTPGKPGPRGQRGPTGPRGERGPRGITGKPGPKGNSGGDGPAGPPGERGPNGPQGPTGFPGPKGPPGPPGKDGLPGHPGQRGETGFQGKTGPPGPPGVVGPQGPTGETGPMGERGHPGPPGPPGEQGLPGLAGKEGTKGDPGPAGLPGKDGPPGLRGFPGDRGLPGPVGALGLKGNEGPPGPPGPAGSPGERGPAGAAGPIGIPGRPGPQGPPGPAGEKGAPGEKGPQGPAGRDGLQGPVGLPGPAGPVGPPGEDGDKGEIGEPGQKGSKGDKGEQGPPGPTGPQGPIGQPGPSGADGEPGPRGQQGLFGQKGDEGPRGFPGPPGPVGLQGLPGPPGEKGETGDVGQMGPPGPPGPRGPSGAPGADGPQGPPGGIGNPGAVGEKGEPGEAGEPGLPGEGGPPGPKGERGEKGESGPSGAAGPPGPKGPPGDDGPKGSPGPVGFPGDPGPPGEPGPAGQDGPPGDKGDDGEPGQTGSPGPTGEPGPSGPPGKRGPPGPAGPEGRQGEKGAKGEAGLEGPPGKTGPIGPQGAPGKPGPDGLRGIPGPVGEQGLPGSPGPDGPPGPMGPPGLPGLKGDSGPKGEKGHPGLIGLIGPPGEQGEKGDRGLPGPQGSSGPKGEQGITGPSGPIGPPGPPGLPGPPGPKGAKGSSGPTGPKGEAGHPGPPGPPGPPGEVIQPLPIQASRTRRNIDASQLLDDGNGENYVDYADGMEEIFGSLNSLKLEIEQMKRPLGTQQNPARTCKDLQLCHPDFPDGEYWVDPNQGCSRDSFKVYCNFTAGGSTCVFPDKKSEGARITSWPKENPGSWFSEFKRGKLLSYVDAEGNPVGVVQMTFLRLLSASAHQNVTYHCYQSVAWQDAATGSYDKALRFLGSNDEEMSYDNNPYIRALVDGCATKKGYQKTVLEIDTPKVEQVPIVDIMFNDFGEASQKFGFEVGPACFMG
# [2] = target: B1; experiment: peptide blocking of 1E8.33 in Western blot of A204 cells
# Procedure: FIG. 8: 1E8.33 mAb blocking test for locating the epitope, performed by means of Western blot of A204 cells. The detection was performed with a mixture of the antibody and different peptides. Lane 1: negative control without antibody. Lane 2: FQEYNYG. Lane 3: […]. Lane 4: […]. Lane 5: […]. Lane 6: […]. Lane 7: positive control with the unblocked 1E8.33 mAb. Complete blocking was observed only in lane 6.
binding result [1],binding result [2],Binder
no binding,–,B1
–,binds,B2

# — patent US20150362496A1 (ONCOMATRYX BIOPHARMA S L, published 2015)
